{"source": "paper PMC7498356", "key": {"[1]": {"target": "T1, TDRD5 LOTUS domain 3 (L3) (Mus musculus, UniProt Q5VCS6 291-365)", "T1 sequence": "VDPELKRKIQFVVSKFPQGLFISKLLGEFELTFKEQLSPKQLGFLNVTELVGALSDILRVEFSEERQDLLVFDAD", "test": "pull-down, ELISA"}, "TDRD7 L2": {"target": "T2, TDRD7 L2 (Mus musculus, UniProt Q8K1H1 222-291)", "T2 sequence": "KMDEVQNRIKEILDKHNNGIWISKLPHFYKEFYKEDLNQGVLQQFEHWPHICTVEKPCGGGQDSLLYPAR", "test": "ELISA"}, "human TDRD5 L1": {"target": "T3, human TDRD5 L1 (Homo sapiens, UniProt Q8NAT2 7-80)", "T3 sequence": "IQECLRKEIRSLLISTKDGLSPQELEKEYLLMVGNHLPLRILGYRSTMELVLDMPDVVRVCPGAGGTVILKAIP", "test": "ELISA"}, "human MARF1 L1": {"target": "T4, human MARF1 L1 (Homo sapiens, UniProt Q9Y4F3 875-949)", "T4 sequence": "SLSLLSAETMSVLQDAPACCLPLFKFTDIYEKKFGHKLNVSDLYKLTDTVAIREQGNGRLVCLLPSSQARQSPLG", "test": "ELISA"}, "Oskar LOTUS (eLOTUS)": {"target": "T5, Oskar LOTUS (eLOTUS) (Drosophila, UniProt P25158 139-241)", "T5 sequence": "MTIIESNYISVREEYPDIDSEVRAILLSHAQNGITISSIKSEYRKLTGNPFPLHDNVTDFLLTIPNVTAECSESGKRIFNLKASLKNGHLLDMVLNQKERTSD", "test": "ELISA"}, "human TDRD7 L1": {"target": "human TDRD7 L1 (Homo sapiens, UniProt Q8NHU6 3-76)", "sequence (Q8NHU6 3-76)": "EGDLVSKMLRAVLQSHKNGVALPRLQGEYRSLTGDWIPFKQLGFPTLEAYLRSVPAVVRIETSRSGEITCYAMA", "test": "ELISA"}, "TDRD7 L3": {"target": "T6, TDRD7 L3 (Mus musculus, UniProt Q8K1H1 325-394)", "T6 sequence": "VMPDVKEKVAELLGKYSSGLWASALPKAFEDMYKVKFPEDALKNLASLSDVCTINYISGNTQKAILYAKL", "test": "ELISA"}, "TP0894-LOTUS": {"target": "T7, TP0894-LOTUS (Treponema pallidum subsp. pallidum str. …, UniProt O83864 178-253)", "T7 sequence": "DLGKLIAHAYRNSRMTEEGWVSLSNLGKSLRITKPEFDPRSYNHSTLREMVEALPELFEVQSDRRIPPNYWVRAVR", "test": "ELISA"}, "AT3G52980-LOTUS": {"target": "T8, AT3G52980-LOTUS (plant, UniProt Q9LF94 199-282)", "T8 sequence": "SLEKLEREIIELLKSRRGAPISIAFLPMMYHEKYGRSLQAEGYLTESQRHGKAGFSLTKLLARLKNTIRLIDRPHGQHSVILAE", "test": "ELISA"}, "TDRD7 L1": {"target": "T9, TDRD7 L1 (Mus musculus, UniProt Q8K1H1 3-76)", "T9 sequence": "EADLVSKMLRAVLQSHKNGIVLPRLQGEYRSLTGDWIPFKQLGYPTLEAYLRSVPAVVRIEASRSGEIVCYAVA", "test": "ELISA"}, "Tejas LOTUS": {"target": "T10, Tejas LOTUS (Drosophila, UniProt A1Z9P1 6-79)", "T10 sequence": "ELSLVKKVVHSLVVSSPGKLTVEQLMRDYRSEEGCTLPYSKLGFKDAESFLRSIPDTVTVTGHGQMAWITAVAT", "test": "ELISA"}, "human MARF1 L7": {"target": "T11, human MARF1 L7 (Homo sapiens, UniProt Q9Y4F3 1411-1485)", "T11 sequence": "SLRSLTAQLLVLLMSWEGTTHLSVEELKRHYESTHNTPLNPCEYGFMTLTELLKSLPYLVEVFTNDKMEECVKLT", "test": "ELISA"}, "[2]": {"target": "T12, TDRD5 LOTUS domain 1 (L1) (Mus musculus, UniProt Q5VCS6 7-80)", "T12 sequence": "T3 sequence with E3D, S21T, E24Q, R59S, A64G, G65D", "test": "DRaCALA"}, "[3]": {"target": "T12, TDRD5 LOTUS domain 1 (L1)", "test": "pull-down, ELISA"}, "[4]": {"target": "T13, TDRD5 LOTUS domain 2 (L2) (Mus musculus, UniProt Q5VCS6 122-197)", "T13 sequence": "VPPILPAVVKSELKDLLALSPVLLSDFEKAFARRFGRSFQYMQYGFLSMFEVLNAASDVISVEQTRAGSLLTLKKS", "test": "pull-down, ELISA"}, "[5]": {"target": "T1, TDRD5 LOTUS domain 3 (L3)", "test": "ELISA"}, "[6]": {"target": "T12, TDRD5 LOTUS domain 1 (L1)", "test": "ELISA"}}, "note": "Changes are numbered by the printed parent chain.", "data": [{"binder": "GGUGGGCAGGGGAGUGGGGGUGGG (structured_RNA)", "note": "[Cluster G4-1 RNA]", "values": [{"measurement": "binding result", "setting": "[1]", "value": "no binding"}, {"measurement": "binding result", "setting": "TDRD7 L2", "value": "binds"}, {"measurement": "binding result", "setting": "human TDRD5 L1", "value": "binds"}, {"measurement": "binding result", "setting": "human MARF1 L1", "value": "binds"}, {"measurement": "binding result", "setting": "Oskar LOTUS (eLOTUS)", "value": "binds"}, {"measurement": "binding result", "setting": "human TDRD7 L1", "value": "binds"}, {"measurement": "binding result", "setting": "TDRD7 L3", "value": "binds"}, {"measurement": "binding result", "setting": "TP0894-LOTUS", "value": "binds"}, {"measurement": "binding result", "setting": "AT3G52980-LOTUS", "value": "binds"}, {"measurement": "binding result", "setting": "TDRD7 L1", "value": "binds"}, {"measurement": "binding result", "setting": "Tejas LOTUS", "value": "binds"}, {"measurement": "binding result", "setting": "human MARF1 L7", "value": "binds"}, {"measurement": "binding result", "setting": "[2]", "value": "binds"}]}, {"binder": "CCCCCCCCCCCCCCCCCCC (ssRNA)", "note": "[Poly(C)]", "values": [{"measurement": "binding result", "setting": "[3]", "value": "no binding"}, {"measurement": "binding result", "setting": "[1]", "value": "no binding"}, {"measurement": "binding result", "setting": "[4]", "value": "no binding"}]}, {"binder": "GGGGGGGGGGGGGGGGGGG (ssRNA)", "note": "[Poly(G)]", "values": [{"measurement": "binding result", "setting": "[5]", "value": "no binding"}]}, {"binder": "TTAGGGTTAGGGTTAGGGTTAGGG (structured_DNA)", "note": "[TERRA G4 DNA]", "values": [{"measurement": "binding result", "setting": "[6]", "value": "no binding"}]}]}
